Reference: US20050048622A1 (Genentech, published 2005)

Tests used:
[1] = molecular target: ErbB4.Fc (UniProt Q15303); test: displacement of ^125I-NRG3^EGF.Fc from immobilized ErbB4.Fc, 96-well plate
[2] = molecular target: T1, human ErbB2 receptor (human, UniProt P04626 23-1255); test: FACS on K562^erbB2 cells
T1 construct: whole, on cells; also called HER2; K562^erbB2 cells

[3] = molecular target: T2, human ErbB3 receptor (human, UniProt P21860 20-1342); test: FACS on K562^erbB3 cells
T2 construct: whole, on cells; also called HER3; K562^erbB3 cells
T2 sequence (P21860 20-1342): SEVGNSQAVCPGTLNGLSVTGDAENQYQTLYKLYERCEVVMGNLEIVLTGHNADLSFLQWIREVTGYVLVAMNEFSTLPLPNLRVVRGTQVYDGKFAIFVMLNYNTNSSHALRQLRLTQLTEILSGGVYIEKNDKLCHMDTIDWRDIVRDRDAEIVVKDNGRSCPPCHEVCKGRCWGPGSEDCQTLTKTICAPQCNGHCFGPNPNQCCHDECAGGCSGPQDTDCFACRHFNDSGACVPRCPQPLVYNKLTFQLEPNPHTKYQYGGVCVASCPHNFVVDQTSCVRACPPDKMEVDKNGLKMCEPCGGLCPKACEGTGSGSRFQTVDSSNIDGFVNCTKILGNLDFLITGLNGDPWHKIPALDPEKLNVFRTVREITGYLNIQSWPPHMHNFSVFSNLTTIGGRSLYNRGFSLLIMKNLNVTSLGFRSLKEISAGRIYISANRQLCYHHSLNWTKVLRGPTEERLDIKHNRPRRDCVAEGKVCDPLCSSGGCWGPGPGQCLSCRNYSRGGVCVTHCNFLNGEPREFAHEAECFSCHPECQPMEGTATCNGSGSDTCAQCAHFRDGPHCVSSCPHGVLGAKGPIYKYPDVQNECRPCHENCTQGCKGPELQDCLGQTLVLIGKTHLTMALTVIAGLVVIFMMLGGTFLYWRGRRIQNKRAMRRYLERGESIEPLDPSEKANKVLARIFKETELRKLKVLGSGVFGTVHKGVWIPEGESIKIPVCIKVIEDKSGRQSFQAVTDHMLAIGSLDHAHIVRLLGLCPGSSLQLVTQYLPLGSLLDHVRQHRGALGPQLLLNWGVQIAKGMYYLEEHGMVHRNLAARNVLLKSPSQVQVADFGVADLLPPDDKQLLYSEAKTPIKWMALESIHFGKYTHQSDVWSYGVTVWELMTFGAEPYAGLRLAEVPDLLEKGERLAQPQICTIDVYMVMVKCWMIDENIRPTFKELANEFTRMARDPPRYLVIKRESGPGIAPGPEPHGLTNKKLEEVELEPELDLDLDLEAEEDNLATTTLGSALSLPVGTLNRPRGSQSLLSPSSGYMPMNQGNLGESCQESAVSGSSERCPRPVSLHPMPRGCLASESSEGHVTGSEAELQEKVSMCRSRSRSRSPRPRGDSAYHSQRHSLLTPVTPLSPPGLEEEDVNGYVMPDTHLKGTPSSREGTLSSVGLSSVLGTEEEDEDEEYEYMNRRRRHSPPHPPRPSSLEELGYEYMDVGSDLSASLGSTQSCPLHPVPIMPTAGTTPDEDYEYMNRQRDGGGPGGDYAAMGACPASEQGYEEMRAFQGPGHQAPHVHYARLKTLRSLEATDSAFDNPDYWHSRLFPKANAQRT

[4] = molecular target: T3, human ErbB4 receptor (human, UniProt Q15303 26-1308); test: FACS on K562^erbB4 cells
T3 construct: whole, on cells; also called HER4; K562^erbB4 cells
T3 sequence (Q15303 26-1308): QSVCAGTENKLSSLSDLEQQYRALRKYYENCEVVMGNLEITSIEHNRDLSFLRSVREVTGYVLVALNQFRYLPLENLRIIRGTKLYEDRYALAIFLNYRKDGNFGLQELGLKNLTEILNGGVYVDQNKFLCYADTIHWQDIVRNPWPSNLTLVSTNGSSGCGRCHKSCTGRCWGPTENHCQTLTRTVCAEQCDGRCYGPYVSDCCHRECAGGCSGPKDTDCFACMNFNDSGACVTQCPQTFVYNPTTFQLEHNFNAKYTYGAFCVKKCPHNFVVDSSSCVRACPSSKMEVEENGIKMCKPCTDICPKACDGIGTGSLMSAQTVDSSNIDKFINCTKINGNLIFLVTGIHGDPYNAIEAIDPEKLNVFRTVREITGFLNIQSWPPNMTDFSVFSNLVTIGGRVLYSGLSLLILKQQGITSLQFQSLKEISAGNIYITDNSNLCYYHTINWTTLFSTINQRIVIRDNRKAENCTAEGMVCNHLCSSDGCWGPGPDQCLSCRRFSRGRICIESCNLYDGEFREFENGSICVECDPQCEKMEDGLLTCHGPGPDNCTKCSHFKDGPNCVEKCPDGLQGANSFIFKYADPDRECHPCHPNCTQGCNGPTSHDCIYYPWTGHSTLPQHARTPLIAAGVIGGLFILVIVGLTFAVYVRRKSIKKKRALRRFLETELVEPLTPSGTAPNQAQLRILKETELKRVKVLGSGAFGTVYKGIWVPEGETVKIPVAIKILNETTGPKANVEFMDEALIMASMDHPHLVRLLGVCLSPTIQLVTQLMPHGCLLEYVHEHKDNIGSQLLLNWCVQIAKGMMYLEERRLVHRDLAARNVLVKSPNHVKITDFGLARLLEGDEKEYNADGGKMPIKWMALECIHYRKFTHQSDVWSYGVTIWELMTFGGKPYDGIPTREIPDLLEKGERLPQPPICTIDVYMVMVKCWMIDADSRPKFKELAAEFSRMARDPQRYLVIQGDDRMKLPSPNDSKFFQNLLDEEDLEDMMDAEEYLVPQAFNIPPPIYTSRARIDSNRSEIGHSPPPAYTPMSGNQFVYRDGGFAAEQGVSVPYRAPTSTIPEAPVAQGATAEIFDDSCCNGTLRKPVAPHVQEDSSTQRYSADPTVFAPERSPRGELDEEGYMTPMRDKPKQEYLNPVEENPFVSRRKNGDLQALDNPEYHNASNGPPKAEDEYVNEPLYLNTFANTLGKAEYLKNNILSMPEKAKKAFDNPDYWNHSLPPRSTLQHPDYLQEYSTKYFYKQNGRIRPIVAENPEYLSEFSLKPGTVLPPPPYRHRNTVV

ErbB4.Fc, sequence (Q15303 26-651 limits assumed): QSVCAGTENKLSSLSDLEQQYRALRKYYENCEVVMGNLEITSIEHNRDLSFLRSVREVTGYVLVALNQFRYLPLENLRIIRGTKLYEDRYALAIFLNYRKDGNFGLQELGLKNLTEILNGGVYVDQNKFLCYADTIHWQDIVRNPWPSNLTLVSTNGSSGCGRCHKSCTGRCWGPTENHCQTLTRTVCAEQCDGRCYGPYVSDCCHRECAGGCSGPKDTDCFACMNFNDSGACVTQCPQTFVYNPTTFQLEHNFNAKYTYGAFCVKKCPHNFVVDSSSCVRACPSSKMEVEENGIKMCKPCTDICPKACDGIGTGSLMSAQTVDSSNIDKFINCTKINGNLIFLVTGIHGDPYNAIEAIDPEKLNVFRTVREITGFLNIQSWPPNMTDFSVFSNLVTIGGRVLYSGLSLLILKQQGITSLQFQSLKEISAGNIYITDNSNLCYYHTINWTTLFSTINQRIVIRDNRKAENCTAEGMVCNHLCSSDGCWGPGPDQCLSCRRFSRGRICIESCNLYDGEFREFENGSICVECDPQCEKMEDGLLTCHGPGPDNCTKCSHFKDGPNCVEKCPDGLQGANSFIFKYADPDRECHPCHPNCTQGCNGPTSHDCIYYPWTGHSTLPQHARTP

Molecule | Ki [1] [nM] | binding result [2] | binding result [3] | binding result [4]
NRG1^EGF (rHRGβ1 177-244) (from UniProt Q02297 177-244) (ligand) | 1 |  |  | 
RSE.Fc (Fc fusion, UniProt Q06418 41-428, looked up, Control; also called control fusion protein; control receptor RSE.Fc; not shown: Fc part) AGLKLMGAPVKLTVSQGQPVKLNCSVEGMEEPDIQWVKDGAVVQNLDQLYIPVSEQHWIGFLSLKSVERSDAGRYWCQVEDGGETEISQPVWLTVEGVPFFTVEPKDLAVPPNAPFQLSCEAVGPPEPVTIVWWRGTTKIGGPAPSPSVLNVTGVTQSTMFSCEAHNLKGLASSRTATVHLQALPAAPFNITVTKLSSSNASVAWMPGADGRALLQSCTVQVTQAPGGWEVLAVVVPVPPFTCLLRDLVPATNYSLRVRCANALGPSPYADWVPFQTKGLAPASAPQNLHAIRTDSGLILEWEEVIPEAPLEGPLGPYKLSWVQDNGTQDELTVEGTRANLTGWDPQKDLIVRVCVSNAVGCGPWSQPLVVSSHDRAGQQGPPHSRTS |  | no binding | no binding | no binding
